Patent US20230312753A1 (IMMUNORIZON, published 2023)

Assays:
NKG2A-CD94-ECD-hFc [1] = target: T1, NKG2A-CD94-ECD-hFc (human, UniProt P26715 94-233; Q13241 32-179, limits assumed); test: ELISA on coated NKG2A-CD94-ECD-hFc (FIG. 43D)
T1 construct: extracellular domain; Lot 20200724002, 'provided by CP'; the two-chain layout here is only the reading of the name; also called human NKG2A (recombinant); NKG2A antigen; not shown: human Fc (hFc)
Description: (§1) Methods: ELISA binding of Tribody/ProTribody antibody constructs to antigens: Dilute target protein (hCD3epsilon-His (cat # 10977-H08S, supplier Sino Biological); h5T4-His (cat# 19845-H08H, supplier Sino Biological); NKG2A-CD94-ECD-hFc, Lot:20200724002, provided by CP; or NKG2D-ECD-hFc, Lot: 20200413002, provided by CP) into PBS with final concentration of 0.01 µg/mL for hCD3epsilon-His, 0.3 µg/mL for h5T4-His, 1 µg/mL for NKG2A-CD94-ECD-hFc and 0.7 µg/mL for hNKG2D-ECD-hFc respectively and coat 100 µL/well on ELISA plate (cat: 9018, supplier Corning) respectively. Incubate O/N, 4° C. The plates were blocked with 250 µL 1% BSA in PBST for 1 hr at 37° C.Wash 4 times with PBST. All the washes are done using Biotek (Elx 405). All the Tribody set antibodies were diluted to 400 nM and make 4-fold serially dilutions (12 points, including 0 point). Add 100 µL/well diluted antibody constructs solution to plate, incubate for 1 hr at 37° C.Wash 4 times with PBST. Add 100 µL/well anti-human kappa light chain-HRP (1:10000), incubate for 0.5 hr at 37° C. Wash 4 times with PBST. 100 µL/well of TMB substrate was added and incubated at room temperature for 5 min. 100 µL/well of 1N HCl to terminate reaction. Plates were read using ELISA plate reader at 450 nm wavelength (instrunet SpectraMax M5e). Data Analysis was performed using Graphpad prism 5 software by using nonlinear regression (curve fit): log (agonist) vs. response, agonist is antibody concentration (nM) and response is OD value.

[2] = target: T2, NKG2A/CD94 on CHO cells (CHOK1-NKG2A-CD94) (human, UniProt P26715 1-233; Q13241 1-179, limits assumed); test: FACS on CHO cells over-expressing human NKG2A (FIG. 45F), reference IM-1062
T2 construct: whole, on cells; also called CHO cells over-expressing NKG2A/CD94; CHO cell line over expressing ectopic NKG2A
Description: (§2) Suspension cultured cells was harvested directly, and adherent cell were digested using TrypLE Express Enzyme (cat: 12604-013, supplier Life technologies). Centrifuge at 1000 rpm for 5 min and discard the supernatant. Cells are suspended at a concentration of 2×10⁶/mL in FACS buffer (2% FBS in PBS) and add 100 µL/well of cell suspension to the plate (cat #3799, supplier Corning). Centrifuging the plates at 2000 rpm for 5 min and discard the supernatant. Re-suspend the cells in 100 µL/well of Tribody set antibodies (400 nM start, 4-fold dilution, 8 point including 0 point) and incubate the plate for 60 min at 4° C. Centrifuge the plate at 2000 rpm, 4° C. for 5 min and discard supernatant. Then wash the cells 3 times with 170 µL FACS buffer. Re-suspend the cells at 100 µL/well with secondary antibody (goat anti-human Ig Fab-FITC, Cat # 2085-02, Southern biotech) with 1:400 dilution and incubate the plate for 30 min at 4° C. in dark. Centrifuge the plate at 2000 rpm, 4° C. for 5 min and discard supernatant. […] The fluorescence intensity of the staining was measured using flow cytometer (BD, FACSVerse). The geometric mean fluorescence intensity (GMFI; median fluorescence intensity (MFI)) of set antibodies staining was calculated (BD FACSuite software). Dose-response curves were generated and EC50s for thetrispecific variants binding were calculated using GraphPad Prism software.

NKG2A-CD94-ECD-hFc [3] = target: T1, NKG2A-CD94-ECD-hFc; test: ELISA on coated NKG2A-CD94-ECD-hFc (FIG. 43D), reference IM-1062
Description: as §1, with “Data Analysis was performed using Graphpad prism 5 software by using nonlinear regression (curve fit): log (agonist) vs. response, agonist is antibody concentration (nM) and response is OD value.” left out

[4] = target: T2, NKG2A/CD94 on CHO cells …; test: FACS on CHO cells over-expressing human NKG2A (FIG. 45F)
Description: (§3) Then wash the cells 3 times with 170 µL FACS buffer. Re-suspend the cells at 100 µL/well with secondary antibody (goat anti-human Ig Fab-FITC, Cat # 2085-02, Southern biotech) with 1:400 dilution and incubate the plate for 30 min at 4° C. in dark. Centrifuge the plate at 2000 rpm, 4° C. for 5 min and discard supernatant. Then wash the cells 3 times with FACS buffer and analyze the sample with FACS verse. The fluorescence intensity of the staining was measured using flow cytometer (BD, FACSVerse). The geometric mean fluorescence intensity (GMFI; median fluorescence intensity (MFI)) of set antibodies staining was calculated (BD FACSuite software). Dose-response curves were generated and EC50s for thetrispecific variants binding were calculated using GraphPad Prism software.
(§4) Results: The expressed trispecific constructs were analyzed for their binding to cells expressing endogenous CD3ε, 5T4 and NKG2A/NKG2D. […] (FIG. 45F).

[5] = target: T3, h5T4-His (recombinant human 5T4) (human, UniProt Q13641 32-355, limits assumed); test: ELISA on coated h5T4-His (FIG. 43B)
T3 construct: Bought protein; also called recombinant 5T4
T3 sequence (looked up): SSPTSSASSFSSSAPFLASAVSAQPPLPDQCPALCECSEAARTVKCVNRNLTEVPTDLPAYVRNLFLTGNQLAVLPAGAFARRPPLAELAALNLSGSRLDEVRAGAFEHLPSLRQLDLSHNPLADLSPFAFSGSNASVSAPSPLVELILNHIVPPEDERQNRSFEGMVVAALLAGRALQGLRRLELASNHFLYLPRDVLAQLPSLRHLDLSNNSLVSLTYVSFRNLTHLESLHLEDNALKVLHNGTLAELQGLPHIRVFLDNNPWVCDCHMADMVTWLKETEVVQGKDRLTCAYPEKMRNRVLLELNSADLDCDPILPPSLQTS
Description: as §1

[6] = target: T4, 5T4 on cells (NCI-H226 endogenous; CHO over-expressing 5T4) (UniProt Q13641 32-420, limits assumed); test: FACS on CHO cells over-expressing ectopic 5T4 (FIG. 45D)
T4 construct: whole, on cells
T4 sequence (looked up): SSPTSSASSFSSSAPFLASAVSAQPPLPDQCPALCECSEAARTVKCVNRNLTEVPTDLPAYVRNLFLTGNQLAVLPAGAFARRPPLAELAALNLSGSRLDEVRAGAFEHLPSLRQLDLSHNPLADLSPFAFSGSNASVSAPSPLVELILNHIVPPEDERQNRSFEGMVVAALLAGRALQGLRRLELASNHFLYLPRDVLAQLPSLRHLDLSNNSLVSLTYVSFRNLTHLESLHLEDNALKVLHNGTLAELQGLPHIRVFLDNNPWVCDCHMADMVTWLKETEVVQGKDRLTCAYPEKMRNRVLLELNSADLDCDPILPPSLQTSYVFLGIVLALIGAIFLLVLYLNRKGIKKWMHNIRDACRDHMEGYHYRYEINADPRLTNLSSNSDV
Description: as §3, §4

[7] = target: T2, NKG2A/CD94 on CHO cells …; test: FACS on CHO cells over-expressing ectopic NKG2A (NKG2A/CD94 by the legend) (FIG. 45E)
Description: as §2

[8] = target: T2, NKG2A/CD94 on CHO cells …; test: competitive FACS receptor-ligand blocking assay on CHOK1-NKG2A-CD94 cells, labelled ligand HLA-E PE (FIG. 49)
[9] = target: T5, NKG2A on NK92 cells (endogenous) (UniProt P26715 1-233, limits assumed); test: FACS on NK92 cells, endogenous NKG2A (FIG. 45C)
T5 construct: whole, on cells
Description: as §2

NKG2A-CD94-ECD-hFc [10] = target: T1, NKG2A-CD94-ECD-hFc; test: ELISA on coated NKG2A-CD94-ECD-hFc (FIG. 43C)
Description: as §1

T1 sequence (P26715 94-233 limits assumed, chain 1 of 2): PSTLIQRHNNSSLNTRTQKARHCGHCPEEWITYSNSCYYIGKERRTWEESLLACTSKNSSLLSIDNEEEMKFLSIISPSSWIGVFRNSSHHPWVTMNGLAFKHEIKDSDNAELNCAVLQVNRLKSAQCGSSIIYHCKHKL
T1 sequence (Q13241 32-179 limits assumed, chain 2 of 2): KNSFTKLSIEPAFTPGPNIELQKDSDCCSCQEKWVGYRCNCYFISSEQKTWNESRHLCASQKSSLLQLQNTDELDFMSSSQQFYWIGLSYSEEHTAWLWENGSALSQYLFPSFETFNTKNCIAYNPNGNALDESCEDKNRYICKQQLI
T2 sequence (P26715 whole entry, chain 1 of 2): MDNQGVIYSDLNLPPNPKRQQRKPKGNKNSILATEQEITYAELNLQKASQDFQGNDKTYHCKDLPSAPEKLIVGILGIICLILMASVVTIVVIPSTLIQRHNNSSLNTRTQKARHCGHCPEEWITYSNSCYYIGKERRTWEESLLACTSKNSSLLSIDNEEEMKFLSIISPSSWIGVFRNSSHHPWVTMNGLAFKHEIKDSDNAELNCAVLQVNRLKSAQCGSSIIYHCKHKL
T2 sequence (Q13241 whole entry, chain 2 of 2): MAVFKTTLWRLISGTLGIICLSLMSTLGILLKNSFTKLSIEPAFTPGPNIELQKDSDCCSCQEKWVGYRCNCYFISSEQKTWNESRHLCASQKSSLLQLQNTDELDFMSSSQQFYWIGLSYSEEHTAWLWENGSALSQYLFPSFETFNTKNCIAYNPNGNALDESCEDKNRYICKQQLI
T5 sequence (P26715 whole entry): as the sequence (P26715 whole entry, chain 1 of 2) above

B1: IM-1272 bi-NKG2A scFv Tribody (other)
heavy: GGSGGSEVQLVESGGGLVQPGGSLRLSCAASGFTFNTYAMNWVRQAPGKGLEWVARIRSKYNNYATYYADSVKDRFTISRDDSKNTLYLQMNSLRAEDTAVYYCVRHGNFGNSYVSWFAYWGQGTMVTVSSASTKGPSVFPLAPSSKSTSGGTAALGCLVKDYFPEPVTVSWNSGALTSGVHTFPAVLQSSGLYSLSSVVTVPSSSLGTQTYICNVNHKPSNTKVDKRVEPKSCPPCGGGGSDIQMTQSPSSLSASVGDRVTITCRASENIYSYLAWYQQKPGKAPKLLIYNAKTLAEGVPSRFSGSGSGTDFTLTISSLQPEDFATYYCQHHYGTPRTFGGGTKVEIKGGGGSGGGGSGGGGSQVQLVQSGAEVKKPGASVKVSCKASGYTFTSYWMNWVRQAPGQGLEWMGRIDPYDSETHYAQKLQGRVTMTTDTSTSTAYMELRSLRSDDTAVYYCARGGYDFDVGTLYWFFDVWGQGTTVTVSSGGGGSDIQMTQSPSSLSASVGDRVTITCRASENIYSYLAWYQQKPGKAPKLLIYNAKTLAEGVPSRFSGSGSGTDFTLTISSLQPEDFATYYCQHHYGTPRTFGGGTKVEIKGGGGSGGGGSGGGGSQVQLVQSGAEVKKPGASVKVSCKASGYTFTSYWMNWVRQAPGQGLEWMGRIDPYDSETHYAQKLQGRVTMTTDTSTSTAYMELRSLRSDDTAVYYCARGGYDFDVGTLYWFFDVWGQGTTVTVSS
light: GGSGGSQAVVTQEPSLTVSPGGTVTLTCRSSTGAVTTSNYANWVQQKPGQAPRGLIGGTNKRAPGTPARFSGSLLGGKAALTLSGVQPEDEAEYYCALWYSNLWVFGGGTKLTVLGQPKAAPSVTLFPPSSEELQANKATLVCLISDFYPGAVTVAWKADSSPVKAGVETTTPSKQSNNKYAASSYLSLTPEQWKSHRSYSCQVTHEGSTVEKTVAPTECPPCSGGGSDIQMTQSPSSLSASVGDRVTITCRASQGISNYLAWFQQKPGKAPKSLIYRANRLQSGVPSRFSGSGSGTDFTLTISSLQPEDVATYYCLQYDDFPWTFGQGTKLEIKGGGGSGGGGSGGGGSGGGGSQVQLVQSGAEVKKPGASVKVSCKASGYTFTSFWMHWVRQAPGQGLEWMGRIDPNRGGTEYNEKAKSRVTMTADKSTSTAYMELSSLRSEDTAVYYCAGGNPYYPMDYWGQGTTVTVSS
notes: Tribody with anti-CD3 Fab, anti-5T4 scFv and two anti-NKG2A scFv in tandem
NKG2A-CD94-ECD-hFc [1]
  EC50: 0.2 nM
[2]
  fold improved binding affinity against IM-1062: ~80 fold
NKG2A-CD94-ECD-hFc [3]
  fold improved binding affinity against IM-1062: ~60 fold
[4]
  EC50: 0.4 nM

B2: IM-1153 Tribody, CD3 mutant variant (other)
heavy: GGSGGSEVQLVESGGGLVQPGGSLRLSCAASGFTFNTYAMNWVRQAPGKGLEWVARIGSGGNGYATYYADSVKDRFTISRDDSKNTLYLQMNSLRAEDTAVYYCVRHGNFGASARSWFAYWGQGTMVTVSSASTKGPSVFPLAPSSKSTSGGTAALGCLVKDYFPEPVTVSWNSGALTSGVHTFPAVLQSSGLYSLSSVVTVPSSSLGTQTYICNVNHKPSNTKVDKRVEPKSCPPCGGGGSDIQMTQSPSSLSASVGDRVTITCRASENIYSYLAWYQQKPGKAPKLLIYNAKTLAEGVPSRFSGSGSGTDFTLTISSLQPEDFATYYCQHHYGTPRTFGGGTKVEIKGGGGSGGGGSGGGGSGGGGSQVQLVQSGAEVKKPGASVKVSCKASGYTFTSYWMNWVRQAPGQGLEWMGRIDPYDSETHYAQKLQGRVTMTTDTSTSTAYMELRSLRSDDTAVYYCARGGYDFDVGTLYWFFDVWGQGTTVTVSS
light: GGSGGSQAVVTQEPSLTVSPGGTVTLTCRSSTGAVTRGNAANWVQQKPGQAPRGLIGGTNARAPGTPARFSGSLLGGKAALTLSGVQPEDEAEYYCALGYSGLWVFGGGTKLTVLGQPKAAPSVTLFPPSSEELQANKATLVCLISDFYPGAVTVAWKADSSPVKAGVETTTPSKQSNNKYAASSYLSLTPEQWKSHRSYSCQVTHEGSTVEKTVAPTECPPCSGGGSDIQMTQSPSSLSASVGDRVTITCRASQGISNYLAWFQQKPGKAPKSLIYRANRLQSGVPSRFSGSGSGTDFTLTISSLQPEDVATYYCLQYDDFPWTFGQGTKLEIKGGGGSGGGGSGGGGSGGGGSQVQLVQSGAEVKKPGASVKVSCKASGYTFTSFWMHWVRQAPGQGLEWMGRIDPNRGGTEYNEKAKSRVTMTADKSTSTAYMELSSLRSEDTAVYYCAGGNPYYPMDYWGQGTTVTVSS
[5]
  EC50: 31 nM
[6]
  EC50: 1.33 nM
[7]
  EC50: 3 nM
[8]
  IC50: 18 nM
[9]
  EC50: 3.7 nM
NKG2A-CD94-ECD-hFc [10]
  EC50: 2.1 nM
